Experimental data published in patent US20240122983A1 (SHATTUCK LABS, published 2024).
Read-outs that look alike come from different tables or passages of the source.

T1: recombinant mouse mOX40 protein (mouse, UniProt P47741 20-211, limits assumed)
T1 sequence (looked up): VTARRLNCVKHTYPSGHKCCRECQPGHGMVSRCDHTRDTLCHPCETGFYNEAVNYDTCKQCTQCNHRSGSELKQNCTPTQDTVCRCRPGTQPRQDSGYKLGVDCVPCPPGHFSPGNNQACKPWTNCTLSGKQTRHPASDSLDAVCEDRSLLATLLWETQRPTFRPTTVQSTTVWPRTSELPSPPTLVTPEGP

B1: mFLT3L-Fc-OX40L chimeric protein (Fc fusion, murine;mouse (printed as mFc), UniProt P49772 27-189, looked up)
chain: GTPDCYFSHSPISSNFKVKFRELTDHLLKDYPVTVAVNLQDEKHCKALWSLFLAQRWIEQLKTVAGSKMQTLLEDVNTEIHFVTSCTFQPLPECLRFVQTNISHLLKDTCTQLLALKPCIGKACQNFSRCLEVQCQPDSSTLLPPRSPIALEATELPEPRPRQVPRDCGCKPCICTVPEVSSVFIFPPKPKDVLTITLTPKVTCVVVDISKDDPEVQFSWFVDDVEVHTAQTQPREEQFNSTFRSVSELPIMHQDWLNGKEFKCRVNSAAFPAPIEKTISKTKGRPKAPQVYTIPPPKEQMAKDKVSLTCMITDFFPEDITVEWQWNGQPAENYKNTQPIMNTNGSYFVYSKLNVQKSNWEAGNTFTCSVLHEGLHNHHTEKSLSHSPGKSSSPAKDPPIQRLRGAVTRCEDGQLFISSYKNEYQTMEVQNNSVVIKCDGLYIIYLKGSFFQEVKIDLHFREDHNPISIPMLNDGRRIVFTVVASLAFKDKVYLTVNAPDTLCEHLQINDGELIVVQLTPGYCAPEGSYHSTVNQVPL
notes: extracellular domain;domain: hinge-CH2-CH3 Fc domain; Expressed in 293 cells, purified on protein A; multimer when not reduced; also called murine FLT3L-Fc-OX40L
B2: recombinant mouse mCD40 protein (receptor, UniProt P27512 20-193, looked up)
chain: LGQCVTCSDKQYLHDGQCCDLCQPGSRLTSHCTALEKTQCHPCDSGEFSAQWNREIRCHQHRHCEPNQGLRVKKEGTAESDTVCTCKEGQHCTSKDCEACAQHTPCIPGFGVMEMATETTDTVCHPCPVGFFSNQSSLFEKCYPWTSCEDKNLEVLQKGTSQTNVICGLKSRMR
B3: Standard(mCD40L) (ligand, mouse, UniProt P27548 112-260, looked up)
ligand chain: MQRGDEDPQIAAHVVSEANSNAASVLQWAKKGYYTMKSNLVMLENGKQLTVKREGLYYVYTQVTFCSNREPSSQRPFIVGLWLKPSSGSERILLKAANTHSSSQLCEQQSVHLGGVFELQAGASVFVNVTEASQVIHRVGFSSFGLLKL
notes: recombinant soluble protein; also called recombinant mCD40L protein
B4: recombinant mouse mFLT3 protein (receptor, UniProt Q00342 28-544, looked up)
chain: NQDLPVIKCVLISHENNGSSAGKPSSYRMVRGSPEDLQCTPRRQSEGTVYEAATVEVAESGSITLQVQLATPGDLSCLWVFKHSSLGCQPHFDLQNRGIVSMAILNVTETQAGEYLLHIQSEAANYTVLFTVNVRDTQLYVLRRPYFRKMENQDALLCISEGVPEPTVEWVLCSSHRESCKEEGPAVVRKEEKVLHELFGTDIRCCARNALGRESTKLFTIDLNQAPQSTLPQLFLKVGEPLWIRCKAIHVNHGFGLTWELEDKALEEGSYFEMSTYSTNRTMIRILLAFVSSVGRNDTGYYTCSSSKHPSQSALVTILEKGFINATSSQEEYEIDPYEKFCFSVRFKAYPRIRCTWIFSQASFPCEQRGLEDGYSISKFCDHKNKPGEYIFYAENDDAQFTKMFTLNIRKKPQVLANASASQASCSSDGYPLPSWTWKKCSDKSPNCTEEIPEGVWNKKANRKVFGQWVSSSTLNMSEAGKGLLVKCCAYNSMGTSCETIFLNSPGPFPFIQDNIS
B5: mFLT3L-Fc-GITRL chimeric protein (Fc fusion, murine;mouse (printed as mFc), UniProt P49772 27-189, looked up)
chain: GTPDCYFSHSPISSNFKVKFRELTDHLLKDYPVTVAVNLQDEKHCKALWSLFLAQRWIEQLKTVAGSKMQTLLEDVNTEIHFVTSCTFQPLPECLRFVQTNISHLLKDTCTQLLALKPCIGKACQNFSRCLEVQCQPDSSTLLPPRSPIALEATELPEPRPRQVPRDCGCKPCICTVPEVSSVFIFPPKPKDVLTITLTPKVTCVVVDISKDDPEVQFSWFVDDVEVHTAQTQPREEQFNSTFRSVSELPIMHQDWLNGKEFKCRVNSAAFPAPIEKTISKTKGRPKAPQVYTIPPPKEQMAKDKVSLTCMITDFFPEDITVEWQWNGQPAENYKNTQPIMNTNGSYFVYSKLNVQKSNWEAGNTFTCSVLHEGLHNHHTEKSLSHSPGKTSLKPTAIESCMVKFELSSSKWHMTSPKPHCVNTTSDGKLKILQSGTYLIYGQVIPVDKKYIKDNAPFVVQIYKKNDVLQTLMNDFQILPIGGVYELHAGDNIYLKFNSKDHIQKTNTYWGIILMPDLPFIS
notes: extracellular domain;domain: hinge-CH2-CH3 Fc domain; Expressed in 293 cells, purified on protein A; multimer when not reduced; also called murine FLT3L-Fc-GITRL; mFLT3-Fc-GITRL
B6: mFLT3L-Fc-CD40L chimeric protein (Fc fusion, murine;mouse (printed as mFc), UniProt P49772 27-189, looked up)
chain: GTPDCYFSHSPISSNFKVKFRELTDHLLKDYPVTVAVNLQDEKHCKALWSLFLAQRWIEQLKTVAGSKMQTLLEDVNTEIHFVTSCTFQPLPECLRFVQTNISHLLKDTCTQLLALKPCIGKACQNFSRCLEVQCQPDSSTLLPPRSPIALEATELPEPRPRQVPRDCGCKPCICTVPEVSSVFIFPPKPKDVLTITLTPKVTCVVVDISKDDPEVQFSWFVDDVEVHTAQTQPREEQFNSTFRSVSELPIMHQDWLNGKEFKCRVNSAAFPAPIEKTISKTKGRPKAPQVYTIPPPKEQMAKDKVSLTCMITDFFPEDITVEWQWNGQPAENYKNTQPIMNTNGSYFVYSKLNVQKSNWEAGNTFTCSVLHEGLHNHHTEKSLSHSPGKHRRLDKVEEEVNLHEDFVFIKKLKRCNKGEGSLSLLNCEEMRRQFEDLVKDITLNKEEKKENSFEMQRGDEDPQIAAHVVSEANSNAASVLQWAKKGYYTMKSNLVMLENGKQLTVKREGLYYVYTQVTFCSNREPSSQRPFIVGLWLKPSSGSERILLKAANTHSSSQLCEQQSVHLGGVFELQAGASVFVNVTEASQVIHRVGFSSFGLLKL
notes: extracellular domain;domain: hinge-CH2-CH3 Fc domain; Expressed in 293 cells, purified on protein A; multimer when not reduced; also called murine FLT3L-Fc-CD40L; mFLT3-Fc-CD40L
B7: Standard mFlt3L (ligand)
chain: GTPDCYFSHSPISSNFKVKFRELTDHLLKDYPVTVAVNLQDEKHCKALWSLFLAQRWIEQLKTVAGSKMQTLLEDVNTEIHFVTSCTFQPLPECLRFVQTNISHLLKDTCTQLLALKPCIGKACQNFSRCLEVQCQPDSSTLLPPRSPIALEATELPEPRPRQ
notes: also called recombinant mFLT3L protein

Key:
[1] = target: T2, anti-mIgG; test: ELISA: plate-bound anti-mIgG (10ug/ml), detection anti-mIgG-HRP (1:1000)
T2 construct: capture antibody of the mFc ELISA; also called Capture Ab: anti-mIgG(10ug/ml)
Text: (§1) Recombinant mFLT3L protein was used to generate a standard curve. […] A mouse whole IgG was used to generate a standard curve. […] Recombinant mOX40L protein was used to generate a standard curve.

[2] = target: T2, anti-mIgG; test: as above; remark: listed apart in the source
Text: Recombinant mFLT3L protein was used to generate a standard curve. […] A mouse whole IgG was used to generate a standard curve. […] Recombinant m4-1BBL protein was used to generate a standard curve.
as §1

[3] = target: T1, recombinant mouse mOX40 protein; test: Dual ELISA: capture anti-FLT3L (R&D AF427), detection with mOX40-His (Acro), tertiary anti-His/HRP (Abcam)
Procedure: (§2) Capture was performed with an anti-FLT3L antibody, followed by detection of the co-stimulatory domain with a his-tagged recombinant protein, and visualized using an anti-his/HRP antibody.

[4] = target: B6; test: Octet biolayer interferometry, loading mCD40-his, analyte Conc. 142.9 nM, Full R2 0.995
Text: (§3) Octet was used to determine on-/off-rates and binding affinities to the target receptors.

[5] = target: B2; test: ELISA: plate-bound mCD40 (5ug/ml), detection anti-mCD40L (1:1000) and anti-goat IgG (1:10,000)
Text: (§4) Recombinant mFLT3L protein was used to generate a standard curve. […] A mouse whole IgG was used to generate a standard curve. […] Recombinant mCD40L protein was used to generate a standard curve.

[6] = target: B6; test: Octet biolayer interferometry, loading mFLT3-his, analyte Conc. 142.9 nM, Full R2 0.9654
Text: as §3

[7] = target: T2, anti-mIgG; test: ELISA: plate-bound anti-mIgG (10ug/ml), detection anti-mIgG-HRP (1:1000); remark: listed apart in the source
Text: Recombinant mFLT3L protein was used to generate a standard curve. […] A mouse whole IgG was used to generate a standard curve. […] Recombinant mGITRL protein was used to generate a standard curve.

[8] = target: B2; test: Dual ELISA: capture anti-FLT3L (R&D AF427), detection with mCD40-His (Acro), tertiary anti-His/HRP (Abcam)
Procedure: as §2

[9] = target: B4; test: ELISA: plate-bound mFlt3 (10ug/ml), detection goat anti-mFlt3L (1:1000) and anti-goat IgG (10,000)
Text: as §4

Binder: B1
EC50 (read off the curve) [1]: ~20 nM | EC50 (read off the curve) [2]: ~20 nM | EC50 (read off the curve) [3]: ~1 nM

Binder: B2
Kd [4]: 14.2 nM | koff [4]: 0.000858 s⁻¹ | kon [4]: 61800 M⁻¹ s⁻¹

Binder: B3
EC50 (read off the curve) [5]: ~10 nM

Binder: B4
Kd [6]: 15.2 nM | koff [6]: 0.00312 s⁻¹ | kon [6]: 205000 M⁻¹ s⁻¹

Binder: B5
EC50 (read off the curve) [7]: ~6 nM | EC50 (read off the curve) [2]: ~6 nM

Binder: B6
EC50 (read off the curve) [8]: ~1 nM

Binder: B7
binding result [9]: binds
